Data: PMC10673843 (2023)

Target: CD44 (isoform 4), Fc-fused (human)
Test: SPR; apparent KD, dimeric Fc-fused target

Chain of CD44 (isoform 4), Fc-fused (human) (chain, as listed by the source): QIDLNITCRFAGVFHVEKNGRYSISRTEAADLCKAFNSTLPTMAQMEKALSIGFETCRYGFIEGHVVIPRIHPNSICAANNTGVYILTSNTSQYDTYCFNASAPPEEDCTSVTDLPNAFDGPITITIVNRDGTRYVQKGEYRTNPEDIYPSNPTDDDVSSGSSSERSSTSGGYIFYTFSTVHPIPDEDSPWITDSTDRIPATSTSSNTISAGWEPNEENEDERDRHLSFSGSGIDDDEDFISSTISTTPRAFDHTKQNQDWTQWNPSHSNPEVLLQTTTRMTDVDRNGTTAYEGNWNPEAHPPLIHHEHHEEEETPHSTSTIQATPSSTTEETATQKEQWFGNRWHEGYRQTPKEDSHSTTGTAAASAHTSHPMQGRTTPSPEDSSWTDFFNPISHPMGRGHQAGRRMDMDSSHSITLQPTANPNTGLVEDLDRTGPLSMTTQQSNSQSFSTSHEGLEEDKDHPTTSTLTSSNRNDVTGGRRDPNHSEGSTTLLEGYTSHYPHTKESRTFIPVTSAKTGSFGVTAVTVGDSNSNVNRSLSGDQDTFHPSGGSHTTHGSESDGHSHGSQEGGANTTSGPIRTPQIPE

B1: BIWA4 (bivatuzumab), as human IgG4 (antibody, V domains shown)
VH: EVQLVESGGGLVKPGGSLRLSCAASGFTFSSYDMSWVRQAPGKGLEWVSTISSGGSYTYYLDSIKGRFTISRDNAKNSLYLQMNSLRAEDTAVYYCARQGLDYWGRGTLVTVSS
VL: EIVLTQSPATLSLSPGERATLSCSASSSINYIYWYQQKPGQAPRLLIYLTSNLASGVPARFSGSGSGTDFTLTISSLEPEDFAVYYCLQWSSNPLTFGGGTKVEIK
B1 gave a Kd of 48 nM.
